Experimental data as given in patent publication US20190345230A1.

Assays:
Experiment in all cases: cell-based or functional assay
[1] = target: HA protein of influenza B virus B/Harbin/7/1994 (Yamagata lineage) (Influenza B virus B/Harbin/7/1994)
[2] = target: HA protein of influenza B virus B/Xiamen/756/2007 (Yamagata lineage) (Influenza B virus B/Xiamen/756/2007)
[3] = target: HA protein of B/Xiamen/1346/2008 (Victoria lineage) (Influenza B virus B/Xiamen/1346/2008 (Victoria lineage)) (UniProt P22092)
[4] = target: HA protein of influenza B virus B/Xiamen/165/2007 (Victoria lineage) (Influenza B virus B/Xiamen/165/2007)
[5] = target: HA protein of B/Singapore/3/1964 (Influenza B virus B/Singapore/3/1964) (UniProt P03464)
[6] = target: HA protein of influenza B virus B/Xiamen/N639/2010 (Victoria lineage) (Influenza B virus B/Xiamen/N639/2010)
[7] = target: HA protein of influenza B virus B/Hong Kong/330/2001 (Victoria lineage) (Influenza B virus B/Hong Kong/330/2001)
[8] = target: HA protein of influenza B virus B/Maryland/1/1959 (Influenza B virus B/Maryland/1/1959) (UniProt P03461)
[9] = target: HA protein of influenza B virus B/Brisbane/33/2008 (Victoria lineage) (Influenza B virus B/Brisbane/33/2008)
[10] = target: HA protein of influenza B virus B/Xiamen/1147/2008 (Yamagata lineage) (Influenza B virus B/Xiamen/1147/2008)
[11] = target: HA protein of influenza B virus B/Xiamen/N678/2012 (Victoria lineage) (Influenza B virus B/Xiamen/N678/2012)
[12] = target: HA protein of influenza A virus A/Brisbane/10/2007 (seasonal H3N2) (Influenza A virus A/Brisbane/10/2007 (H3N2))
[13] = target: HA protein of influenza B virus B/Xiamen/N697/2012 (Yamagata lineage) (Influenza B virus B/Xiamen/N697/2012)
[14] = target: HA protein of influenza B virus B/Taiwan/2/1962 (Influenza B virus B/Taiwan/2/1962)
[15] = target: HA protein of influenza B virus B/Xiamen/3043/2006 (Victoria lineage) (Influenza B virus B/Xiamen/3043/2006)
[16] = target: HA protein of influenza B virus B/Malaysia/2506/2004 (Victoria lineage) (Influenza B virus B/Malaysia/2506/2004)
[17] = target: HA protein of influenza B virus B/Xiamen/891/2006 (Yamagata lineage) (Influenza B virus B/Xiamen/891/2006)
[18] = target: HA protein of influenza B virus B/Lee/1940 (Influenza B virus B/Lee/1940) (UniProt P03460)
[19] = target: HA protein of influenza B virus B/Florida/4/2006 (Yamagata lineage) (Influenza B virus B/Florida/4/2006)
[20] = target: HA protein of influenza B virus B/Brisbane/60/2008 (Victoria lineage) (Influenza B virus B/Brisbane/60/2008)
[21] = target: HA protein of influenza B virus B/Great Lakes/1739/1954 (Influenza B virus B/Great Lakes/1739/1954)

B1: monoclonal antibody 12G6 (antibody, V domains shown)
VH: EVHLQQSGPELVKPGASVKMSCEASGYTFTDYYVAWVKQSPGESFEWIGRVNPYSGGTSYNQKFKGKATLIVDKSSSTAYMELSSLTSEDSAVYYCARWDYGVYEGYIDYWGQGSALTV
VL: DIQMTQSPASLSVSVGETVTITCRASEKIYSNLAWYQQKEGKSPQLLVYAAIRLADGVPSRFSGSGSGTQFSLKINSLQSEDFGTYYCQHFWGTPLTFGAGTKLELK
HI titer (dilution fold) [1]: 200 | Neutralization titer [1]: 3200 titer | HI titer (dilution fold) [2]: < 100 | Neutralization titer [2]: 1600 titer | HI titer (dilution fold) [3]: < 100 | Neutralization titer [3]: 3200 titer | HI titer (dilution fold) [4]: < 100 | Neutralization titer [4]: 6400 titer | HI titer (dilution fold) [5]: 400 | Neutralization titer [5]: 6400 titer | HI titer (dilution fold) [6]: < 100 | Neutralization titer [6]: 3200 titer | HI titer (dilution fold) [7]: 3200 | Neutralization titer [7]: > 25600 titer | HI titer (dilution fold) [8]: < 100 | Neutralization titer [8]: 3200 titer | HI titer (dilution fold) [9]: 3200 | Neutralization titer [9]: > 25600 titer | HI titer (dilution fold) [10]: < 100 | Neutralization titer [10]: 1600 titer | HI titer (dilution fold) [11]: < 100 | Neutralization titer [11]: 1600 titer | HI titer (dilution fold) [12]: < 100 | Neutralization titer [12]: < 100 titer | HI titer (dilution fold) [13]: < 100 | Neutralization titer [13]: 800 titer | HI titer (dilution fold) [14]: < 100 | Neutralization titer [14]: 1600 titer | HI titer (dilution fold) [15]: < 100 | Neutralization titer [15]: 3200 titer | HI titer (dilution fold) [16]: 3200 | Neutralization titer [16]: 12800 titer | HI titer (dilution fold) [17]: < 100 | Neutralization titer [17]: 1600 titer | HI titer (dilution fold) [18]: 6400 | Neutralization titer [18]: 6400 titer | HI titer (dilution fold) [19]: 12800 | Neutralization titer [19]: > 25600 titer | HI titer (dilution fold) [20]: 3200 | Neutralization titer [20]: > 25600 titer | HI titer (dilution fold) [21]: 1600 | Neutralization titer [21]: > 25600 titer

B2: monoclonal antibody 7G6 (antibody, V domains shown)
VH: EVQLQQSGPELVKPGASVKISCKASGYTFTDYNMHWVKQSLGKSLEWIGYIYPNNGGTGYNQKFESKATLTVDNSSSTAYMELRTLTSEDSAVYYCVRSGAYYFNYLVPYFDYWGQGTTLTVSS
VL: NIVLTQSPASLAVSLGQRATISCRASESVDIYGNSFMHWYQQKPGQPPKLLIYLASKLECGVCARFNGSGCRTDFTLAIDPVEGDDGATYYCQQNYEDPWTFGGGTKLEIK
HI titer (dilution fold) [1]: < 100 | Neutralization titer [1]: < 100 titer | HI titer (dilution fold) [2]: 12800 | Neutralization titer [2]: 12800 titer | HI titer (dilution fold) [3]: 6400 | Neutralization titer [3]: 6400 titer | HI titer (dilution fold) [4]: 12800 | Neutralization titer [4]: 12800 titer | HI titer (dilution fold) [5]: 3200 | Neutralization titer [5]: > 25600 titer | HI titer (dilution fold) [6]: 3200 | Neutralization titer [6]: 3200 titer | HI titer (dilution fold) [7]: > 25600 | Neutralization titer [7]: > 25600 titer | HI titer (dilution fold) [8]: 6400 | Neutralization titer [8]: 800 titer | HI titer (dilution fold) [9]: 3200 | Neutralization titer [9]: > 25600 titer | HI titer (dilution fold) [10]: > 25600 | Neutralization titer [10]: > 25600 titer | HI titer (dilution fold) [11]: 6400 | Neutralization titer [11]: 6400 titer | HI titer (dilution fold) [12]: < 100 | Neutralization titer [12]: < 100 titer | HI titer (dilution fold) [13]: > 25600 | Neutralization titer [13]: > 25600 titer | HI titer (dilution fold) [14]: 12800 | Neutralization titer [14]: 12800 titer | HI titer (dilution fold) [15]: 12800 | Neutralization titer [15]: 12800 titer | HI titer (dilution fold) [16]: 6400 | Neutralization titer [16]: > 25600 titer | HI titer (dilution fold) [17]: > 25600 | Neutralization titer [17]: > 25600 titer | HI titer (dilution fold) [18]: 1600 | Neutralization titer [18]: 1600 titer | HI titer (dilution fold) [19]: > 25600 | Neutralization titer [19]: > 25600 titer | HI titer (dilution fold) [20]: 3200 | Neutralization titer [20]: 12800 titer | HI titer (dilution fold) [21]: < 100 | Neutralization titer [21]: < 100 titer

B3: monoclonal antibody 11B10 (antibody, V domains shown)
VH: EVQLQQSGPELVKPGASVKISCKASGYTFTGYNMHWVKQSHGKSLEWIGKIYPNNGVTGYNQEFRSKATLTVDNSSSTAYMELRSLTSEDSAIYFCVRSGAYYVNYLVPYFDYWGQGTTLTVSS
VL: NIVLTQSPASLAVSPGQRATISCRASESIDIYGNSFMHWYQKKPGQPPKLLIYRASNLESGVPARFNGSGSRTDFTLTIDPVEGDDGATYYCQQNYEDPWTFGGGTKLEIK
HI titer (dilution fold) [1]: < 100 | Neutralization titer [1]: < 100 titer | HI titer (dilution fold) [2]: 400 | Neutralization titer [2]: 400 titer | HI titer (dilution fold) [3]: 3200 | Neutralization titer [3]: 3200 titer | HI titer (dilution fold) [4]: 3200 | Neutralization titer [4]: 3200 titer | HI titer (dilution fold) [5]: < 100 | Neutralization titer [5]: 800 titer | HI titer (dilution fold) [6]: 400 | Neutralization titer [6]: 400 titer | HI titer (dilution fold) [7]: 800 | Neutralization titer [7]: > 25600 titer | HI titer (dilution fold) [8]: < 100 | Neutralization titer [8]: < 100 titer | HI titer (dilution fold) [9]: < 100 | Neutralization titer [9]: 800 titer | HI titer (dilution fold) [10]: 800 | Neutralization titer [10]: 800 titer | HI titer (dilution fold) [11]: 400 | Neutralization titer [11]: 400 titer | HI titer (dilution fold) [12]: < 100 | Neutralization titer [12]: < 100 titer | HI titer (dilution fold) [13]: 800 | Neutralization titer [13]: 800 titer | HI titer (dilution fold) [14]: 800 | Neutralization titer [14]: 800 titer | HI titer (dilution fold) [15]: 6400 | Neutralization titer [15]: 6400 titer | HI titer (dilution fold) [16]: 3200 | Neutralization titer [16]: > 25600 titer | HI titer (dilution fold) [17]: 800 | Neutralization titer [17]: 800 titer | HI titer (dilution fold) [18]: < 100 | Neutralization titer [18]: < 100 titer | HI titer (dilution fold) [19]: 400 | Neutralization titer [19]: 6400 titer | HI titer (dilution fold) [20]: < 100 | Neutralization titer [20]: 3200 titer | HI titer (dilution fold) [21]: < 100 | Neutralization titer [21]: < 100 titer
